In US7794719 (dated 2010) one finds Kd data, which are given here for 31 molecules.

Residue numbers refer to the chain shown, from its start.

The labels stand for the following.
B1: MS-R 8.2L1 Fab (antibody, V domains shown)
VH: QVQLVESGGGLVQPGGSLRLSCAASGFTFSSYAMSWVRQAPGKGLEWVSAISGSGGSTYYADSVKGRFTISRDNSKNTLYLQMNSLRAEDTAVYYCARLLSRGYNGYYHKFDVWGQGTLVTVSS
VL: DIVLTQSPATLSLSPGERATLSCRASQRVSGRYLAWYQQKPGQAPRLLIYGASSRATGVPARFSGSGSGTDFTLTISSLEPEDFATYYCQQLSSYPPTFGQGTKVEIKR
B2: MS-R 3.4L9 Fab (antibody, V domains shown)
VH: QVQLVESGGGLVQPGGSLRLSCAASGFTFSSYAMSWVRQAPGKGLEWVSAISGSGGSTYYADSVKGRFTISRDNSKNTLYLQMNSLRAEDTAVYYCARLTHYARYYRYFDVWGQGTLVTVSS
VL: B1 VL with Q27R, V29I, S30H, G31V, R32Y, L92T, S93Y, S94D
B3: MS-R 7.9H2 Fab (antibody, V domains shown)
VH: QLVESGGGLVQPGGSLRLSCAASGFTFSSYAMSWVRQAPGKGLEWVSAINADGNRKYYADSVKGRFTISRDNSKNTLYLQMNSLRAEDTAVYYCARGKGNTHKPYGYVRYFDVWGQGTLVTVSS
VL: B1 VL with R28S, G31S, R32S, Q90L, L92I, S93Y, S94N, Y95M, P97I
B4: MS-R 3.6L2 Fab (antibody, V domains shown)
VH: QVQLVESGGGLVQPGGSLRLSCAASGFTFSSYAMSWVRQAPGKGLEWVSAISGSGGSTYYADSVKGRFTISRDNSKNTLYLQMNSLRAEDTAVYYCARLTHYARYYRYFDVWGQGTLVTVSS
VL: B1 VL with R28F, V29L, G31R, R32Y, T86V, L92T, S93Y, S94N
B5: MS-R 3.4L7 Fab (antibody, V domains shown)
VH: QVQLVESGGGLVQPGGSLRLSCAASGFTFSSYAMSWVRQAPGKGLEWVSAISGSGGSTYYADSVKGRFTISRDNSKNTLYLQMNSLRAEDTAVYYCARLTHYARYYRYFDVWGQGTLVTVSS
VL: B1 VL with V29L, S30G, G31R, R32L, L92T, S93Y, S94D
B6: MS-R 3.6L1 Fab (antibody, V domains shown)
VH: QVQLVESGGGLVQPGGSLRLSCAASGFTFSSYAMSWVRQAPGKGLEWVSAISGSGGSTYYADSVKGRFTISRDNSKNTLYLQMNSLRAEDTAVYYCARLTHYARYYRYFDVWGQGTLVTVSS
VL: B1 VL with R28F, V29I, S30Q, G31R, R32F, T86V, L92T, S93Y, S94N
B7: MS-R 7.9H7 Fab (antibody, V domains shown)
VH: QVQLVESGGGLVQPGGSLRLSCAASGFTFSSYAMSWVRQAPGKGLEWVSAINASGTRTYYADSVKGRFTISRDNSKNTLYLQMNSLRAEDTAVYYCARGKGNTHKPYGYVRYFDVWGQGTLVTVSS
VL: B1 VL with R28S, G31S, R32S, Q90L, L92I, S93Y, S94N, Y95M, P97I
B8: MS-R 7.9 Fab (antibody, V domains shown)
VH: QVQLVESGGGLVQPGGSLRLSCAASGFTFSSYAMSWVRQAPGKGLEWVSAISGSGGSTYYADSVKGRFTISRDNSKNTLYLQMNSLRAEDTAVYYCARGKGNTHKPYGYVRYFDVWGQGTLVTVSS
VL: B1 VL with R28S, G31S, R32S, Q90L, L92I, S93Y, S94N, Y95M, P97I
B9: MS-R 7.2L1 Fab (antibody, V domains shown)
VH: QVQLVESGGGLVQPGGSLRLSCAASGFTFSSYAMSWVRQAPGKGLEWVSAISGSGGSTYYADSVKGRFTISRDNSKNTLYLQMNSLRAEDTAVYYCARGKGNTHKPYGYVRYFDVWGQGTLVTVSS
VL: B1 VL with R28Y, S30D, G31R, R32T, L92I, S93Y, Y95F, P97H
B10: MS-R 7.11L1 Fab (antibody, V domains shown)
VH: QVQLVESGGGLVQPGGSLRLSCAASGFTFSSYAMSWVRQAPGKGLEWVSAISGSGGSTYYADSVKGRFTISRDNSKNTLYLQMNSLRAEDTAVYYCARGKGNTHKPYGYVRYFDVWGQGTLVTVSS
VL: B1 VL with V29I, S30L, G31R, R32I, L92V, S93Y, Y95P, P97H
B11: MS-R 7.9H4 Fab (antibody, V domains shown)
VH: B3 VH with D52V, N54M, R55K, Y57F
VL: B1 VL with R28S, G31S, R32S, Q90L, L92I, S93Y, S94N, Y95M, P97I
B12: MS-R 7 Fab (antibody, V domains shown)
VH: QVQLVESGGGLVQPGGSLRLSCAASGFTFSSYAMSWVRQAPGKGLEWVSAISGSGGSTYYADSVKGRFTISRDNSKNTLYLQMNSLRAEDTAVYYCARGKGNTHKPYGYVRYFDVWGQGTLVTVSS
VL: B1 VL with R28S, G31S, R32S, Q90F, S93Y, Y95D, P97F
B13: MS-R 7.9H2 x 7.2L1(L1) Fab (antibody, V domains shown)
VH: B3 VH
VL: B1 VL with R28Y, S30D, G31R, R32T, L92I, S93Y, Y95F, P97H
B14: MS-R 3.3H1 x 3.4L9 Fab (antibody, V domains shown)
VH: QLVESGGGLVQPGGSLRLSCAASGFTFSSYAMSWVRQAPGKGLEWVSVISEKSRFIYYADSVKGRFTISRDNSKNTLYLQMNSLRAEDTAVYYCARLTHYARYYRYFDVWGQGTLVTVSS
VL: B1 VL with Q27R, V29I, S30H, G31V, R32Y, L92T, S93Y, S94D
B15: MS-R 7.4H2 x 7.2L1 Fab (antibody, V domains shown)
VH: B3 VH with A51Y, D52N, N54A, K56I
VL: B1 VL with R28Y, S30D, G31R, R32T, L92I, S93Y, Y95F, P97H
B16: MS-R 7.11H2 x 7.9L1(L1) Fab (antibody, V domains shown)
VH: B3 VH with D52N, N54Y, R55K
VL: B1 VL with V29L, G31P, Q90L, L92I, S93Y, S94N, Y95M, P97I
B17: MS-R 3.4H1 x 3.4L9 Fab (antibody, V domains shown)
VH: B14 VH with V48A, K52T, R54I, F55R, I56K
VL: B1 VL with Q27R, V29I, S30H, G31V, R32Y, L92T, S93Y, S94D
B18: MS-R 3.4H3 x 3.4L7 Fab (antibody, V domains shown)
VH: B14 VH with E51Q, K52T, S53G, F55K
VL: B1 VL with V29L, S30G, G31R, R32L, L92T, S93Y, S94D
B19: MS-R 3.4H3 x 3.4L9 Fab (antibody, V domains shown)
VH: B14 VH with E51Q, K52T, S53G, F55K
VL: B1 VL with Q27R, V29I, S30H, G31V, R32Y, L92T, S93Y, S94D
B20: MS-R 3.4H7 x 3.4L7 Fab (antibody, V domains shown)
VH: B14 VH with K52T, S53G, R54K, F55N
VL: B1 VL with V29L, S30G, G31R, R32L, L92T, S93Y, S94D
B21: MS-R 7.11H2 x 7.2L1(L1) Fab (antibody, V domains shown)
VH: B3 VH with D52N, N54Y, R55K
VL: B1 VL with R28Y, S30D, G31R, R32T, L92I, S93Y, Y95F, P97H
B22: MS-R 3.4H7 x 3.4L9 Fab (antibody, V domains shown)
VH: B14 VH with K52T, S53G, R54K, F55N
VL: B1 VL with Q27R, V29I, S30H, G31V, R32Y, L92T, S93Y, S94D
B23: MS-R 7.11H1 x 7.2L1 Fab (antibody, V domains shown)
VH: B3 VH with A48G, D52A, N54F, K56T
VL: B1 VL with R28Y, S30D, G31R, R32T, L92I, S93Y, Y95F, P97H
B24: MS-R 3.6H5 x 3.6L1 Fab (antibody, V domains shown)
VH: B14 VH with V48A, K52S, S53G, R54K, F55T, I56K
VL: B1 VL with R28F, V29I, S30Q, G31R, R32F, T86V, L92T, S93Y, S94N
B25: MS-R 7.11H1 x 7.11L1 Fab (antibody, V domains shown)
VH: B3 VH with A48G, D52A, N54F, K56T
VL: B1 VL with V29I, S30L, G31R, R32I, L92V, S93Y, Y95P, P97H
B26: MS-R 3.6H5 x 3.6L2 Fab (antibody, V domains shown)
VH: B14 VH with V48A, K52S, S53G, R54K, F55T, I56K
VL: B1 VL with R28F, V29L, G31R, R32Y, T86V, L92T, S93Y, S94N
B27: MS-R 8.1H1 x 8.2L1 Fab (antibody, V domains shown)
VH: QLVESGGGLVQPGGSLRLSCAASGFTFSSYAMSWVRQAPGKGLEWVSAISRSGSNIYYADSVKGRFTISRDNSKNTLYLQMNSLRAEDTAVYYCARLLSRGYNGYYHKFDVWGQGTLVTVSS
VL: B1 VL
B28: MS-R 7.2H2 x 7.2L1 Fab (antibody, V domains shown)
VH: B3 VH with A51G, D52T, N54M, R55K
VL: B1 VL with R28Y, S30D, G31R, R32T, L92I, S93Y, Y95F, P97H
B29: MS-R 7.4H2 x 7.12L2 Fab (antibody, V domains shown)
VH: B3 VH with A51Y, D52N, N54A, K56I
VL: DIVLTQSPATLSLSPGERATLSCRASQRFFYKYLAWYQQKPGQAPRLLISGSSNRATGVPARFSGSGSGTDFTLTISSLEPEDFAVYYCLQLYNIPNTFGQGTKVEIKR
B30: MS-R 7.9H2 x 7.12L2(L1+2) Fab (antibody, V domains shown)
VH: B3 VH
VL: B29 VL
B31: MS-R 7.9H2 x 7.12L1 Fab (antibody, V domains shown)
VH: B3 VH
VL: B29 VL with R28Y, F29V, Y31R, K32R

For orientation: Kd means the constant that tells how readily two partners part at equilibrium. A low value points to tighter binding.

The target in one experiment is Aβ1-42 fibers (human). The experiment in a line: SPR. Background: Surface plasmon resonance follows binding to a sensor surface in real time, without labels.
On to B1, for which the dissociation constant Kd came to 3.7 nM.

The molecule B2 registered a Kd of 9.1 nM.

Consider B3, for which the equilibrium dissociation constant (Kd) turned out to be 5.7 nM.

Take B4: the equilibrium dissociation constant (Kd) turned out to be 13.1 nM.

B5: the affinity, expressed as Kd, was 9.3 nM. The Kd values of the last two molecules are within 1.5-fold of each other.

On to B6, for which the equilibrium dissociation constant (Kd) is 11.1 nM. This Kd and that of the molecule before are within 1.5-fold of each other.

Consider B7, for which the dissociation constant (Kd) came to 0.9 nM.

On to B8, for which the dissociation constant Kd turned out to be 93 nM.

B9 had a Kd of 12.7 nM.

With B10, the Kd was determined as 1.2 nM.

As to B11, the affinity, expressed as Kd, was 4.2 nM.

B12 returned a Kd of 1710 nM. This Kd is about 410-fold higher than that of the molecule before.

The next experiment concerns the target Aβ1-40 fibers (human). Briefly: SPR.
In turn, B1 had an equilibrium dissociation constant (Kd) of 4.8 nM.

As for B2, binding was characterised by a dissociation constant (Kd) of 16.3 nM.

Consider B3, for which the dissociation constant (Kd) stood at 5 nM.

In turn, B4 showed an equilibrium dissociation constant (Kd) of 13.7 nM.

B5 yielded a dissociation constant (Kd) of 9.3 nM. The Kd values of the last two molecules are within 1.5-fold of each other.

Molecule B6 yielded a Kd of 15.6 nM.

The molecule B7 yielded a Kd of 1 nM.

For the molecule B8, the Kd was 31 nM.

Consider B9, for which the affinity, expressed as Kd, was 13.3 nM.

B10 yielded a dissociation constant (Kd) of 1.1 nM.

B11 came in with a dissociation constant Kd of 4.8 nM.

B12 yielded a Kd of 1100 nM.

The target of another experiment is Aβ1-40 fibers (human). Briefly: SPR. The source holds these as a separate data set.
Consider B13, for which binding was put at a Kd of 1.4 nM.

With B14, binding was put at a Kd of 2.16 nM.

Turning to B15, the affinity, expressed as Kd, was 1.4 nM.

The molecule B16 registered a Kd of 0.1 nM. This Kd is about 14-fold lower than that of the molecule before.

As to B17, the Kd was determined as 0.25 nM.

Take B18: the Kd was determined as 0.92 nM.

Take B19: the Kd turned out to be 1.05 nM.

Consider B20, for which the affinity, expressed as Kd, was 1.19 nM.

Molecule B21 registered a dissociation constant (Kd) of 1 nM.

Regarding B22, the affinity, expressed as Kd, was 2.66 nM.

The molecule B23 yielded a dissociation constant (Kd) of 1.75 nM.

In turn, B24 gave a dissociation constant Kd of 1.25 nM. This Kd and that of the molecule before are within 1.5-fold of each other.

Regarding B25, the dissociation constant Kd turned out to be 0.41 nM. Compared with the last molecule, the Kd is about 3-fold lower.

B26 registered a dissociation constant (Kd) of 1.26 nM.

For B27, the affinity, expressed as Kd, was 1.3 nM.

Consider B28, for which binding was put at a Kd of 1.29 nM.

For the molecule B29, the affinity, expressed as Kd, was 1.4 nM.

The molecule B30 had a Kd of 0.4 nM.

The molecule B31 displayed a Kd of 1.2 nM.

The target of the next experiment is Aβ1-42 fibers (human). The experiment in a line: SPR. The source holds these as a separate data set.
Consider B13, for which the equilibrium dissociation constant (Kd) amounted to 1.4 nM. That is a single-digit nanomolar value.

The molecule B14 showed a Kd of 2.97 nM.

Consider B15, for which the Kd stood at 1.4 nM.

The molecule B16 registered an equilibrium dissociation constant (Kd) of 1 nM. The Kd values of the last two molecules are within 1.5-fold of each other.

B17 returned a Kd of 0.5 nM. This Kd lies about 2-fold lower than the previous one.

On to B18, for which the Kd was found to be 0.92 nM. This Kd lies about 1.8-fold higher than the previous one.

For B19, the affinity, expressed as Kd, was 0.93 nM.

B20 gave a Kd of 1.23 nM.

B21 registered an equilibrium dissociation constant (Kd) of 0.6 nM.

B22: the equilibrium dissociation constant (Kd) was 3.51 nM.

Take B23: the Kd stood at 1.39 nM.

Regarding B24, the equilibrium dissociation constant (Kd) was 1.04 nM.

Consider B25, for which the Kd turned out to be 0.47 nM. Against the preceding molecule, the Kd is about 2.2-fold lower.

As to B26, the Kd stood at 0.84 nM.

With B27, binding was characterised by a dissociation constant (Kd) of 1.6 nM.

As for B28, binding was characterised by a dissociation constant (Kd) of 1.43 nM. The Kd values of the last two molecules are within 1.5-fold of each other.

B29 registered a dissociation constant Kd of 1.8 nM.

As to B30, binding was characterised by a dissociation constant (Kd) of 0.4 nM. This Kd is about 4.5-fold lower than that of the molecule before.

For B31, the affinity, expressed as Kd, was 1.1 nM.
